According to patent US20250339531A1, “DUX4 POLYPEPTIDES AND NUCLEIC ACIDS FOR TREATING INFLAMMATORY AND AUTOIMMUNE CONDITIONS” (Fred Hutchinson Cancer Center, priority 2021, published 2025):

Experiments:
Assay in all cases: anti-FLAG co-IP LC-MS, exp 3, +Dox
[1] = biological target: 40S ribosomal protein S3a (Homo sapiens) (UniProt P61247)
[2] = biological target: 60S ribosomal protein L4 (Homo sapiens) (UniProt P36578)
[3] = biological target: Fibronectin (Homo sapiens) (UniProt P02751)
[4] = biological target: Nucleophosmin (Homo sapiens) (UniProt P06748)
[5] = biological target: Tubulin alpha-1B chain (Homo sapiens) (UniProt P68363)
Sequence of Tubulin alpha-1B chain (Homo sapiens) (P68363 whole entry): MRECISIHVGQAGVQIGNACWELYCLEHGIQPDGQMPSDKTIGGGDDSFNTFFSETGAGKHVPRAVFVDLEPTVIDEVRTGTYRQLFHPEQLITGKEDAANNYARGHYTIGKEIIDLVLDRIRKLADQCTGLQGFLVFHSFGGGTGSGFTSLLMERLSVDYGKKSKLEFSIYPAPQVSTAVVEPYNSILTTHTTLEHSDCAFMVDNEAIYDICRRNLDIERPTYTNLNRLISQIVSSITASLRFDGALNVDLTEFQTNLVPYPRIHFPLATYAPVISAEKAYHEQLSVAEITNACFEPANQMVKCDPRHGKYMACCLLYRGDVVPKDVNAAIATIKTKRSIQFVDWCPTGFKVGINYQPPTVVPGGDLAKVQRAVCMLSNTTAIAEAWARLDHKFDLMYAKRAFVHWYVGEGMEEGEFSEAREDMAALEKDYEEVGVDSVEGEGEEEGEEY

[6] = biological target: Neutral cholesterol ester hydrolase 1 (Homo sapiens) (UniProt Q6PIU2)
Sequence of Neutral cholesterol ester hydrolase 1 (Homo sapiens) (Q6PIU2 whole entry, the tested form may be a part): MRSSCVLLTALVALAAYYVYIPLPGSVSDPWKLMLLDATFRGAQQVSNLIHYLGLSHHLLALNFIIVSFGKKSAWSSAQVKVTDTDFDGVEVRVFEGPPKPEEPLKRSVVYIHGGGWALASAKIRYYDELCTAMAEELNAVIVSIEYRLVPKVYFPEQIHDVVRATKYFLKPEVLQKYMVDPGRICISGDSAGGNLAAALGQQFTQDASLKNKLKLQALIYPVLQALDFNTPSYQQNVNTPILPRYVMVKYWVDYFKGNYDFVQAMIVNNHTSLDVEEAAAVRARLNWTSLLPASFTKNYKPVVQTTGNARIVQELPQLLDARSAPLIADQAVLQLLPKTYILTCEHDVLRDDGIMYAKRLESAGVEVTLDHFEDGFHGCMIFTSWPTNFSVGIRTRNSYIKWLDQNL

[7] = biological target: KN motif and ankyrin repeat domain-containing protein 2 (Homo sapiens) (UniProt Q63ZY3)
[8] = biological target: Cytoskeleton-associated protein 4 (Homo sapiens) (UniProt Q07065)
Sequence of Cytoskeleton-associated protein 4 (Homo sapiens) (Q07065 whole entry): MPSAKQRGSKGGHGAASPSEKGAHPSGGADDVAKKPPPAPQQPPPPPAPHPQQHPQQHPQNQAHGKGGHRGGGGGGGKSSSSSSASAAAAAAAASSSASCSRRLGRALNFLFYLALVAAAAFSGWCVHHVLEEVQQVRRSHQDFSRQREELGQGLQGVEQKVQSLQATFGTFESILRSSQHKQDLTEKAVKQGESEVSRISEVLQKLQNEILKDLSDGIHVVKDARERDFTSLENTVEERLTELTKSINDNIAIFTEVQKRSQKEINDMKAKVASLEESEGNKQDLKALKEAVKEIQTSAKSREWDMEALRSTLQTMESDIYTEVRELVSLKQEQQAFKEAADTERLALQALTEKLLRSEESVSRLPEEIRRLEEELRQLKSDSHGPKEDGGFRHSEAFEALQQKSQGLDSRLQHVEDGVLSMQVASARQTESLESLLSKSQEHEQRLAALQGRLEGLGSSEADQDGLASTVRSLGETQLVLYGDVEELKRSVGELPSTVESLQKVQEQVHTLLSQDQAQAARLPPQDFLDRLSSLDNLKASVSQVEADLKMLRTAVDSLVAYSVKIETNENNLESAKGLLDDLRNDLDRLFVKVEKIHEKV

[9] = biological target: Alpha-actinin-4 (Homo sapiens) (UniProt O43707)
Sequence of Alpha-actinin-4 (Homo sapiens) (O43707 whole entry): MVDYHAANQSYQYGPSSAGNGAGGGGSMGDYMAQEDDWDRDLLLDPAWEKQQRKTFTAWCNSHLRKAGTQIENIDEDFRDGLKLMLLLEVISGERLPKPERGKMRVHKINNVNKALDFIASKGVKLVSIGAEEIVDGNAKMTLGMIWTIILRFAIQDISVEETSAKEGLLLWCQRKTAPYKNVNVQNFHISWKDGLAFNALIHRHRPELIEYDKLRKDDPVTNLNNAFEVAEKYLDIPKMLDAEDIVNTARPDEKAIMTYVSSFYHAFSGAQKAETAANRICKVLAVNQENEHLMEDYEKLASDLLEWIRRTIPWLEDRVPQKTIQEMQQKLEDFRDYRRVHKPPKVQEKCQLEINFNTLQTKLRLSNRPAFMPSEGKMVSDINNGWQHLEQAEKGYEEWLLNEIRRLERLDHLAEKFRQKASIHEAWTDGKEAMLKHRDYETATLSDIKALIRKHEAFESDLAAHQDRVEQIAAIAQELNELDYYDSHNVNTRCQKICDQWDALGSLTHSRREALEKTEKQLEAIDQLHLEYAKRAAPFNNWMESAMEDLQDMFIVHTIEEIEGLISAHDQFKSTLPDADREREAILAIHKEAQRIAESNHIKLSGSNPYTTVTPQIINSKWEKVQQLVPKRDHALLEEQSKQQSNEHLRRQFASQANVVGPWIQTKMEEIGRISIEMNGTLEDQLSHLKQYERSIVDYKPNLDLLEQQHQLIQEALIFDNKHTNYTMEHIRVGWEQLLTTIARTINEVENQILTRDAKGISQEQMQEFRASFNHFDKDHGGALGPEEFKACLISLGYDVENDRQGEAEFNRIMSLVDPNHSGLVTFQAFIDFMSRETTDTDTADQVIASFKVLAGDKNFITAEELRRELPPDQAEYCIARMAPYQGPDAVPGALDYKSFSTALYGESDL

[10] = biological target: Endoplasmic reticulum chaperone BiP (Homo sapiens) (UniProt P11021)
Sequence of Endoplasmic reticulum chaperone BiP (Homo sapiens) (P11021 19-654 limits assumed): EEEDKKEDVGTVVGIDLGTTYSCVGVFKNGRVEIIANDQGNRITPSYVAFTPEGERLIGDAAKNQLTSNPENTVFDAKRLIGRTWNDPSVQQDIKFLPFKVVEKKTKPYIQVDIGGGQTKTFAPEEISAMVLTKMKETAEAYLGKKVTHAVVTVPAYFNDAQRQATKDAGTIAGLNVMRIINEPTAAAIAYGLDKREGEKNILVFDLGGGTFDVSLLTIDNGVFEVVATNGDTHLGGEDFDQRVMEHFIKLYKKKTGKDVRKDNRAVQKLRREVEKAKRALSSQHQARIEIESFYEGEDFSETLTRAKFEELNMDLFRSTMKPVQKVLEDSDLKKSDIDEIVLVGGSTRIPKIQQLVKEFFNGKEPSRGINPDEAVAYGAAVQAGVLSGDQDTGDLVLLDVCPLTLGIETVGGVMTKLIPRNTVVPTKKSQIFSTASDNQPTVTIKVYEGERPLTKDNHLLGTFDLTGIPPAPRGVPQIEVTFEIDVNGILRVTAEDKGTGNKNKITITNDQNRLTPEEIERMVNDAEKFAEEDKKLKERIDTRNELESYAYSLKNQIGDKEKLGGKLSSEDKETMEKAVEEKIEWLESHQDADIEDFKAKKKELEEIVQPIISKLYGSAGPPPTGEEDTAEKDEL

[11] = biological target: Probable ATP-dependent RNA helicase DDX6 (Homo sapiens) (UniProt P26196)
[12] = biological target: Tubulin beta chain (Homo sapiens) (UniProt P07437)
Caprin-1 (Homo sapiens) = Caprin-1 (Homo sapiens) (UniProt Q14444)
[13] = biological target: 40S ribosomal protein S14 (Homo sapiens) (UniProt P62263)
[14] = biological target: Heat shock protein HSP 90-beta (Homo sapiens) (UniProt P08238)
[15] = biological target: Heterogeneous nuclear ribonucleoprotein K (Homo sapiens) (UniProt P61978)
Vimentin (Homo sapiens) = Vimentin (Homo sapiens) (UniProt P08670)
[16] = biological target: Tubulin beta-4B chain (Homo sapiens) (UniProt P68371)
[17] = biological target: Ribonuclease inhibitor (Homo sapiens) (UniProt P13489)
Filamin-C (Homo sapiens) = Filamin-C (Homo sapiens) (UniProt Q14315)
[18] = biological target: Plasminogen activator inhibitor 1 RNA-binding protein (Homo sapiens) (UniProt Q8NC51)
Sequence of Plasminogen activator inhibitor 1 RNA-binding protein (Homo sapiens) (Q8NC51 2-408 limits assumed): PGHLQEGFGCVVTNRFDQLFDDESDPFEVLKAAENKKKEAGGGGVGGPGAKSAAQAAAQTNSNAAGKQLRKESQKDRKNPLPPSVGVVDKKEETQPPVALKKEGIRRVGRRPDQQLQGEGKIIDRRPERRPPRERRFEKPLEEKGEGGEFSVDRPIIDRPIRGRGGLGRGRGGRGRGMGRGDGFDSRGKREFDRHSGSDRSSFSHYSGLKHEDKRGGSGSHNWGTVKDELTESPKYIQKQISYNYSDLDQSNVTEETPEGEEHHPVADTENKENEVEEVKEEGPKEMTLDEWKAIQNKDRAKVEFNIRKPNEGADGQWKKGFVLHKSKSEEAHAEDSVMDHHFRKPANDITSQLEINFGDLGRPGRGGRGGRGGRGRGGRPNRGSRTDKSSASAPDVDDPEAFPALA

[19] = biological target: Actin-related protein 3 (Homo sapiens) (UniProt P61158)
[20] = biological target: Serine/threonine-protein phosphatase 2A 65 kDa regulatory subunit A alpha isoform (Homo sapiens) (UniProt P30153)
Sequence of Serine/threonine-protein phosphatase 2A 65 kDa regulatory subunit A alpha isoform (Homo sapiens) (P30153 2-589 limits assumed): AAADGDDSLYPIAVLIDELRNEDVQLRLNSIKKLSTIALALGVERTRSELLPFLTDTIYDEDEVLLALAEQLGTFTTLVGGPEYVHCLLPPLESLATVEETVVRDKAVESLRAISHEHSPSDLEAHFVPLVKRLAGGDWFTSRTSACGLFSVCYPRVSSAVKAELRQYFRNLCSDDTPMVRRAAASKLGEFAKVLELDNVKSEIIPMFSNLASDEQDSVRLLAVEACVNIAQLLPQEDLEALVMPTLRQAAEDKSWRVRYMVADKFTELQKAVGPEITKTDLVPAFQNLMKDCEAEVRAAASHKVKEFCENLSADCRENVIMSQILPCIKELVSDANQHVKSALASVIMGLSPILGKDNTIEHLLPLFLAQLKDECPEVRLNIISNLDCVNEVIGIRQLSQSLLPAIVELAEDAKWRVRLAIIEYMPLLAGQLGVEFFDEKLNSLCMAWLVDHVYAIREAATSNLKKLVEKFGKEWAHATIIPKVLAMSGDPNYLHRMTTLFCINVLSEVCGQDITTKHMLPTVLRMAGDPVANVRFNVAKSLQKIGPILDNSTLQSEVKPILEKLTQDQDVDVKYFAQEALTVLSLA

[21] = biological target: Prolyl 4-hydroxylase subunit alpha-1 (Homo sapiens) (UniProt P13674)
Plectin (Homo sapiens) = Plectin (Homo sapiens) (UniProt Q15149)
[22] = biological target: Ribosome-binding protein 1 (Homo sapiens) (UniProt Q9P2E9)
Myosin-9 (Homo sapiens) = Myosin-9 (Homo sapiens) (UniProt P35579)
Desmin (Homo sapiens) = Desmin (Homo sapiens) (UniProt P17661)
[23] = biological target: 40S ribosomal protein S8 (Homo sapiens) (UniProt P62241)
[24] = biological target: 60S ribosomal protein L8 (Homo sapiens) (UniProt P62917)
[25] = biological target: 60S ribosomal protein L13 (Homo sapiens) (UniProt P26373)
[26] = biological target: Prostate tumor-overexpressed gene 1 protein (Homo sapiens) (UniProt Q86YD1)
[27] = biological target: Neuroblast differentiation-associated protein AHNAK (Homo sapiens) (UniProt Q09666)
Drebrin (Homo sapiens) = Drebrin (Homo sapiens) (UniProt Q16643)
[28] = biological target: S-adenosylhomocysteine hydrolase-like protein 1 (Homo sapiens) (UniProt O43865)
[29] = biological target: Tubulin beta-6 chain (Homo sapiens) (UniProt Q9BUF5)
[30] = biological target: Tubulin alpha-4A chain (Homo sapiens) (UniProt P68366)
[31] = biological target: AP-2 complex subunit alpha-1 (Homo sapiens) (UniProt O95782)
[32] = biological target: Tubulin beta-2A chain (Homo sapiens) (UniProt Q13885)
Sequence of Tubulin beta-2A chain (Homo sapiens) (Q13885 whole entry): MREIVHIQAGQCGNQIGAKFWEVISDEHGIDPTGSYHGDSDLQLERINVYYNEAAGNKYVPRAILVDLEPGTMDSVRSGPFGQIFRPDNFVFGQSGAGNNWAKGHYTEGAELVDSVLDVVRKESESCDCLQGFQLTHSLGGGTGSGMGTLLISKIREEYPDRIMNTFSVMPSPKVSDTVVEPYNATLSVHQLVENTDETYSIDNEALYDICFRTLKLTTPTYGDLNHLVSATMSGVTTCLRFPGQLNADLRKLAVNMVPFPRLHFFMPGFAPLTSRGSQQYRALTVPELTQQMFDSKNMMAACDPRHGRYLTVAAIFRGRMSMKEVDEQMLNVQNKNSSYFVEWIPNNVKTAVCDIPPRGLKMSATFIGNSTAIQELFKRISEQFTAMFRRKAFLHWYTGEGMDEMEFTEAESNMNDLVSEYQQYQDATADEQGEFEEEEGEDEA

[33] = biological target: Protein disulfide-isomerase (Homo sapiens) (UniProt P07237)
Sequence of Protein disulfide-isomerase (Homo sapiens) (P07237 18-508 limits assumed): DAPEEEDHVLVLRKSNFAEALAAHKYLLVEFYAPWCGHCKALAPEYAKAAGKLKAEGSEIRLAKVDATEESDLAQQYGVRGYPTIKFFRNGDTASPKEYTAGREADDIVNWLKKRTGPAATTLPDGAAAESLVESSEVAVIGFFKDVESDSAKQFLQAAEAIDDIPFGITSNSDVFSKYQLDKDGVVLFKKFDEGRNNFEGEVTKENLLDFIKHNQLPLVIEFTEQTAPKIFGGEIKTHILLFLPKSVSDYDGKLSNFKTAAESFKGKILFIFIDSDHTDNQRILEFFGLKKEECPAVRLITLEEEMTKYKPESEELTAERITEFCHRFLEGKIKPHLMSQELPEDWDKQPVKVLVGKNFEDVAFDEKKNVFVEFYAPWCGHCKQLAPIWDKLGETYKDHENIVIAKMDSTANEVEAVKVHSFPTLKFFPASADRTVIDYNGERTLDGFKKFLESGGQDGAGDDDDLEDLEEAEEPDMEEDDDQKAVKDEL

i3XFLAG-NLS-CTDaa154-424
PSMs [1]: 3 PSMs
PSMs [2]: 10 PSMs
PSMs [3]: 17 PSMs
PSMs [4]: 2 PSMs
PSMs [5]: 22 PSMs
PSMs [6]: 3 PSMs
PSMs [7]: 3 PSMs
PSMs [8]: 30 PSMs
PSMs [9]: 2 PSMs
PSMs [10]: 22 PSMs
PSMs [11]: 2 PSMs
PSMs [12]: 41 PSMs
PSMs (Caprin-1 (Homo sapiens)): 5 PSMs
PSMs [13]: 2 PSMs
PSMs [14]: 2 PSMs
PSMs [15]: 2 PSMs
PSMs (Vimentin (Homo sapiens)): 42 PSMs
PSMs [16]: 42 PSMs
PSMs [17]: 3 PSMs
PSMs (Filamin-C (Homo sapiens)): 2 PSMs
PSMs [18]: 2 PSMs
PSMs [19]: 5 PSMs
PSMs [20]: 5 PSMs
PSMs [21]: 3 PSMs
PSMs (Plectin (Homo sapiens)): 5 PSMs
PSMs [22]: 24 PSMs
PSMs (Myosin-9 (Homo sapiens)): 122 PSMs
PSMs (Desmin (Homo sapiens)): 9 PSMs
PSMs [23]: 2 PSMs
PSMs [24]: 3 PSMs
PSMs [25]: 2 PSMs
PSMs [26]: 2 PSMs
PSMs [27]: 8 PSMs
PSMs (Drebrin (Homo sapiens)): 3 PSMs
PSMs [28]: 7 PSMs
PSMs [29]: 20 PSMs
PSMs [30]: 14 PSMs
PSMs [31]: 10 PSMs
PSMs [32]: 35 PSMs
PSMs [33]: 3 PSMs
